The target of assay [1] is cynomolgus T cell receptor (TCRαβ) on primary cynomolgus T cells (cynomolgus). Put plainly: cell-based or functional assay.
In assay [2] the target is human T cell receptor (TCRαβ) on primary human T cells (human). Put plainly: cell-based or functional assay.
Chain of human T cell receptor (TCRαβ) on primary human T cells (human) (P0DTU3 134-275, chain 1 of 2): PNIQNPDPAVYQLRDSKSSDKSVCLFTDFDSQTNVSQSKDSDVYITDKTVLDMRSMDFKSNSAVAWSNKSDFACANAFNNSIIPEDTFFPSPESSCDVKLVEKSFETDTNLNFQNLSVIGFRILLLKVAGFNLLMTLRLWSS
Chain of human T cell receptor (TCRαβ) on primary human T cells (human) (P01850 other isoform, or with tags, fused parts or gaps, chain 2 of 2, further chain): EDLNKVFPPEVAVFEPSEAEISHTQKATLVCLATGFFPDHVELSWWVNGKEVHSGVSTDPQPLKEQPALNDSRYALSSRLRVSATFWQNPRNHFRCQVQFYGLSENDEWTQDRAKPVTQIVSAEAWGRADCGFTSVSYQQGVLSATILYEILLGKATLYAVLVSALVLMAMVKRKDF

B1: A022600427 (protein)
chain: DVQLVESGGGVVQPGGSLRLSCVASGYVHKINFYGWYRQAPGKEREKVAHISIGDQTDYADSAKGRFTISRDESKNTVYLQMNSLRPEDTAAYYCRALSRIWPYDYWGQGTLVTVSSGGGGSEVQLVESGGGVVQPGGSLRLSCAASGFTFSSFAMTWVRRPPGKGLEWVATITNAGVTSYADSVKGRFTISRDNAKNTLYLQMNSLRPEDTALYICANARRTGPRAPTDIGSYRGQGTLVTVSSGGGGSGGGSEVQLVESGGGVVQPGGSLRLSCAASGSIFRSVFSSSTMEWYRQAPGKKRELVARIAPGEGTYYGALYADSVKGRFTISRDNAKNTVYLQMNSLRPEDTALYYCASGVAWGQGTLVTVSSGGGGSGGGSEVQLVESGGGVVQPGGSLRLSCAASGFTFRSFGMSWVRQAPGKGPEWVSSISGSGSDTLYADSVKGRFTISRDNSKNTLYLQMNSLRPEDTALYYCTIGGSLSRSSQGTLVTVSSA
In the case of B1, in assay [1], the IC50 (M), cynomolgus T cell mediated HuH-7 cell killing, Cynomolgus Donor #1 turned out to be 2.3e-08 M and the IC50 (M), cynomolgus T cell mediated HuH-7 cell killing, Cynomolgus Donor #2 came out at 2.5e-10 M. Further, in assay [2], the IC50 (M), human T cell mediated HuH-7 cell killing, Human Donor #1 was 3e-10 M and the IC50 (M), human T cell mediated HuH-7 cell killing, Human Donor #2 is 1.1e-10 M.

B2: A022600462 (protein)
chain: DVQLVESGGGVVQPGGSLRLSCVASGYVHKINFYGWYRQAPGKEREKVAHISIGDQTDYAESAKGRFTISRDESKNTVYLQMNSLRPEDTAAYYCRALSRIYPYDYWGQGTLVTVSSGGGGSEVQLVESGGGVVQPGGSLRLSCAASGFTFSSFAMTWVRRPPGKGLEWVATITNKGVTSYADSVKGRFTISRDNAKNTLYLQMNSLRPEDTALYICANARRTGPRAPTDIGSYRGQGTLVTVSSGGGGSGGGSEVQLVESGGGVVQPGGSLRLSCAASGSIFRSVFSSSTMEWYRQAPGKKRELVARIAPGEGTYYGALYADSVKGRFTISRDNAKNTVYLQMNSLRPEDTALYYCASGVAWGQGTLVTVSSGGGGSGGGSEVQLVESGGGVVQPGGSLRLSCAASGFTFRSFGMSWVRQAPGKGPEWVSSISGSGSDTLYADSVKGRFTISRDNSKNTLYLQMNSLRPEDTALYYCTIGGSLSRSSQGTLVTVSSA
In assay [1], B2 had an IC50 (M), cynomolgus T cell mediated HuH-7 cell killing, Cynomolgus Donor #1 of 3.9e-09 M and an IC50 (M), cynomolgus T cell mediated HuH-7 cell killing, Cynomolgus Donor #2 of 2.2e-10 M. In addition, in assay [2], the IC50 (M), human T cell mediated HuH-7 cell killing, Human Donor #1 was 2.8e-10 M and the IC50 (M), human T cell mediated HuH-7 cell killing, Human Donor #2 worked out at 1e-10 M.
